The numbers were not newly measured in PMC139967 (BMC Biochemistry, 2002), which cites them from elsewhere.

Some results are limits rather than exact numbers.

Assay in data set [1]: not given
The source holds these as a separate data set.

B1: Myo1c: Myosin-1c, previously called myosin-Iβ, myr 2, or MI-110K; literature preparations (protein, UniProt O00159 1-1063, looked up)
Unconventional myosin-Ic: MALQVELVPTGEIIRVVHPHRPCKLALGSDGVRVTMESALTARDRVGVQDFVLLENFTSEAAFIENLRRRFRENLIYTYIGPVLVSVNPYRDLQIYSRQHMERYRGVSFYEVPPHLFAVADTVYRALRTERRDQAVMISGESGAGKTEATKRLLQFYAETCPAPERGGAVRDRLLQSNPVLEAFGNAKTLRNDNSSRFGKYMDVQFDFKGAPVGGHILSYLLEKSRVVHQNHGERNFHIFYQLLEGGEEETLRRLGLERNPQSYLYLVKGQCAKVSSINDKSDWKVVRKALTVIDFTEDEVEDLLSIVASVLHLGNIHFAANEESNAQVTTENQLKYLTRLLSVEGSTLREALTHRKIIAKGEELLSPLNLEQAAYARDALAKAVYSRTFTWLVGKINRSLASKDVESPSWRSTTVLGLLDIYGFEVFQHNSFEQFCINYCNEKLQQLFIELTLKSEQEEYEAEGIAWEPVQYFNNKIICDLVEEKFKGIISILDEECLRPGEATDLTFLEKLEDTVKHHPHFLTHKLADQRTRKSLGRGEFRLLHYAGEVTYSVTGFLDKNNDLLFRNLKETMCSSKNPIMSQCFDRSELSDKKRPETVATQFKMSLLQLVEILQSKEPAYVRCIKPNDAKQPGRFDEVLIRHQVKYLGLLENLRVRRAGFAYRRKYEAFLQRYKSLCPETWPTWAGRPQDGVAVLVRHLGYKPEEYKMGRTKIFIRFPKTLFATEDALEVRRQSLATKIQAAWRGFHWRQKFLRVKRSAICIQSWWRGTLGRRKAAKRKWAAQTIRRLIRGFVLRHAPRCPENAFFLDHVRTSFLLNLRRQLPQNVLDTSWPTPPPALREASELLRELCIKNMVWKYCRSISPEWKQQLQQKAVASEIFKGKKDNYPQSVPRLFISTRLGTDEISPRVLQALGSEPIQYAVPVVKYDRKGYKPRSRQLLLTPNAVVIVEDAKVKQRIDYANLTGISVSSLSDSLFVLHVQRADNKQKGDVVLQSDHVIETLTKTALSANRVNSININQGSITFAGGPGRDGTIDFTPGSELLITKAKNGHLAVVAPRLNSR
Turning to B1, the “effect of Ca^2+ on in vitro motility” value is listed as “completely halts”. In addition, the “calmodulins per Myo1c after calmodulin supplementation” value in the data set with calmodulin (calmodulin supplementation) is reported as no more than 4. Moreover, the “calmodulins per Myo1c heavy chain” value with calmodulin (purified Myo1c) is 2–3. For the same molecule, the “effect of Ca^2+ on ATPase activity” value in data set [1] is on record as “increases”.
